According to the supplement of paper PMC10724198:
± gives the standard deviation of the averaged measurements.

Key:
Saccharomyces cerevisiae [1] = assay: protein stability index of tFT-peptide fusion (C-terminal peptide) (PSI (0-1 scale)); higher = more stable (slower turnover)
Procedure: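 MPS profiling in S. cerevisiae of the tFT-X12 degron library: putative degron peptides plus stable controls, 12 aa, fused to the C-terminus of a sfGFP-mCherry timer. Cells are FACS-sorted into 8 mCherry/sfGFP bins and deep-sequenced. PSI runs from 0 (unstable) to 1 (stable). Backgrounds are wild type, das1Δ and doa10Δ at 30 °C, and wild type, das1Δ, cdc34-1 and cdc53-1 at 37 °C; 2-3 technical replicates each.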

Saccharomyces cerevisiae [2] = assay: as above; settings: genetic background: wild type; temperature: 30 C
[3] = genetic background: cdc34-1, temperature: 37 C
[4] = genetic background: cdc53-1, temperature: 37 C
[5] = genetic background: das1 deletion, temperature: 30 C
[6] = genetic background: das1 deletion, temperature: 37 C
[7] = genetic background: doa10 deletion, temperature: 30 C
[8] = genetic background: wild type, temperature: 30 C
[9] = genetic background: wild type, temperature: 37 C
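Also: PSI is a weighted mean of sequencing reads over stability bins, variants kept only with over 10 reads, mCherry proximal and sfGFP distal, peptide attached via GGGS linker.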

Sequence	protein stability index (Saccharomyces cerevisiae [1]; [3])	protein stability index (Saccharomyces cerevisiae [1]; [4])	protein stability index (Saccharomyces cerevisiae [1]; [5])	protein stability index (Saccharomyces cerevisiae [1]; [6])	protein stability index (Saccharomyces cerevisiae [1]; [7])	protein stability index (Saccharomyces cerevisiae [1]; [8])	protein stability index (Saccharomyces cerevisiae [1]; [9])	protein stability index (Saccharomyces cerevisiae [2])
VLLFGLAFFFSF	0.422 ± 0.058	0.4953 ± 0.0026	0.367 ± 0.053	0.537 ± 0.036	0.222 ± 0.013	0.241 ± 0.029	0.408 ± 0.033	0.371 ± 0.055
VFLSCFFVSWVV	0.328 ± 0.019	0.403 ± 0.047	0.226 ± 0.027	0.40329 ± 5.2e-05	0.202 ± 0.011	0.204 ± 0.015	0.369 ± 0.03	0.3269 ± 0.0017
LVYLVCAYSECE	0.44 ± 0.015	0.463 ± 0.039	0.275 ± 0.039	0.477 ± 0.0062	0.242 ± 0.019	0.274 ± 0.0093	0.477 ± 0.0088	0.332 ± 0.02
SLRPFFPPLPRP	0.631 ± 0.06	0.729 ± 0.0088	0.69 ± 0.033	0.7305 ± 0.0014	0.723 ± 0.026	0.702 ± 0.031	0.7187 ± 0.0031	0.666 ± 0.28
VFLYVYAVWFLV	0.156 ± 0.027	0.228 ± 0.0084	0.198 ± 0.042	0.321 ± 0.0075	0.1102 ± 0.00096	0.119 ± 0.053	0.118 ± 0.023	0.164 ± 0.025
GGYCQMFFLYFR	0.0593 ± 0.039	0.0464 ± 0.018	0.0923 ± 0.042	0.0948 ± 0.0031	0.575 ± 0.021	0.0833 ± 0.0047	0.0907 ± 0.031	0.141 ± 0.021
WLPFFPLSLRGV	0.321 ± 0.012	0.317 ± 0.011	0.412 ± 0.027	0.5374 ± 0.0038	0.63 ± 0.0096	0.436 ± 0.048	0.5 ± 0.0093	0.497 ± 0.2
SPSTPQALSNFS	0.679 ± 0.0097	0.748 ± 0.015	0.657 ± 0.032	0.7376 ± 0.0054	0.664 ± 0.022	0.663 ± 0.025	0.715 ± 0.027	0.715 ± 0.038
FPGPPSPPPSYF	0.699 ± 0.048	0.776 ± 0.001	0.639 ± 0.01	0.766 ± 0.0078	0.6435 ± 0.0011	0.6466 ± 0.0022	0.7451 ± 0.0065	0.706 ± 0.011
FMVYRIHSSAVM	0.127 ± 0.017	0.172 ± 0.014	0.251 ± 0.06	0.149 ± 0.006	0.265 ± 0.028	0.257 ± 0.038	0.14 ± 0.014	0.158 ± 0.0045
YSIHYLRFFSLF	0.4734 ± 0.00049	0.6669 ± 0.0066	0.6143 ± 0.0048	0.726 ± 0.014	0.0685 ± 0.011	0.0874 ± 0.015	0.0998 ± 0.011	0.133 ± 0.034
ALFLLWVVMHDV	0.2376 ± 0.0022	0.337 ± 0.021	0.247 ± 0.036	0.421 ± 0.018	0.195 ± 0.024	0.219 ± 0.035	0.397 ± 0.022	0.343 ± 0.011
LRSLLIIYLLIF	0.2561 ± 0.0023	0.292 ± 0.025	0.253 ± 0.038	0.404 ± 0.0084	0.203 ± 0.0043	0.192 ± 0.0044	0.31 ± 0.012	0.279 ± 0.039
CFFVSLFFYIDC	0.207 ± 0.055	0.296 ± 0.0032	0.215 ± 0.021	0.392 ± 0.0061	0.191 ± 0.014	0.203 ± 0.042	0.35 ± 0.0022	0.323 ± 0.011
VYRVTGSWLMWV	0.511 ± 0.059	0.5758 ± 0.0051	0.483 ± 0.021	0.527 ± 0.0078	0.353 ± 0.03	0.357 ± 0.019	0.4879 ± 0.0027	0.434 ± 0.007
GHHLRVRVILTA	0.4104 ± 0.00042	0.435 ± 0.0077	0.311 ± 0.026	0.47 ± 0.013	0.16006 ± 0.00015	0.189 ± 0.019	0.297 ± 0.013	0.275 ± 0.054
ILLICLQFFNLF	0.427 ± 0.057	0.544 ± 0.012	0.394 ± 0.035	0.5269 ± 0.0039	0.3502 ± 0.00069	0.36 ± 0.018	0.505 ± 0.0075	0.4481 ± 0.0036
YPSCPINFICLC	0.618 ± 0.0088	0.6992 ± 0.0053	0.585 ± 0.017	0.685 ± 0.01	0.29 ± 0.0056	0.308 ± 0.037	0.499 ± 0.0051	0.417 ± 0.035
FLCLLSLFFLDF	0.532 ± 0.044	0.572 ± 0.024	0.461 ± 0.03	0.626 ± 0.036	0.462 ± 0.034	0.437 ± 0.011	0.575 ± 0.015	0.478 ± 0.052
LWCLVWGGVWGV	0.458 ± 0.014	0.5417 ± 0.005	0.353 ± 0.041	0.555 ± 0.0028	0.34 ± 0.0085	0.343 ± 0.039	0.508 ± 0.012	0.447 ± 0.009

Sequence	protein stability index (Saccharomyces cerevisiae [1]; [3])	protein stability index (Saccharomyces cerevisiae [1]; [4])	protein stability index (Saccharomyces cerevisiae [1]; [5])	protein stability index (Saccharomyces cerevisiae [1]; [6])	protein stability index (Saccharomyces cerevisiae [1]; [7])	protein stability index (Saccharomyces cerevisiae [1]; [8])	protein stability index (Saccharomyces cerevisiae [1]; [9])	protein stability index (Saccharomyces cerevisiae [2])
VVFLFVEAVVGV	0.0536 ± 0.018	0.0519 ± 0.021	0.0387 ± 0.014	0.0974 ± 0.015	0.0288 ± 0.0048	0.0238 ± 0.0054	0.0933 ± 0.022	0.0707 ± 0.0075
CSFHFSLFFLRV	0.3793 ± 0.0022	0.426 ± 0.048	0.356 ± 0.027	0.4589 ± 0.0031	0.485 ± 0.042	0.332 ± 0.014	0.422 ± 0.0073	0.334 ± 0.037
LCGGEWVVWVKG	0.645 ± 0.023	0.7321 ± 0.0055	0.557 ± 0.02	0.721 ± 0.012	0.211 ± 0.0085	0.234 ± 0.026	0.477 ± 0.029	0.342 ± 0.0052
WFALFYFLVSAF	0.189 ± 0.019	0.257 ± 0.01	0.205 ± 0.036	0.316 ± 0.0074	0.157 ± 0.008	0.187 ± 0.0045	0.254 ± 0.0038	0.266 ± 0.011
FSFPIIFFGMFL	0.445 ± 0.021	0.463 ± 0.0054	0.394 ± 0.02	0.542 ± 0.006	0.426 ± 0.019	0.324 ± 0.033	0.51 ± 0.021	0.415 ± 0.0083
VFWISRLYLASY	0.474 ± 0.027	0.524 ± 0.023	0.442 ± 0.037	0.588 ± 0.012	0.42 ± 0.017	0.362 ± 0.023	0.52 ± 0.02	0.456 ± 0.02
NVWCWGASCFFC	0.709 ± 0.048	0.797 ± 0.01	0.684 ± 0.0069	0.773 ± 0.0087	0.3367 ± 0.0033	0.36 ± 0.021	0.561 ± 0.025	0.447 ± 0.023
GCCFVCSVFWWG	0.407 ± 0.0055	0.493 ± 0.0055	0.348 ± 0.031	0.528 ± 0.0081	0.327 ± 0.014	0.353 ± 0.015	0.507 ± 0.011	0.431 ± 0.011
LLFTFSLSFFFR	0.405 ± 0.036	0.467 ± 0.0087	0.445 ± 0.048	0.438 ± 0.0076	0.458 ± 0.018	0.42 ± 0.022	0.45 ± 0.022	0.445 ± 0.014
PALLLFLRNLLL	0.714 ± 0.022	0.7282 ± 0.0042	0.6419 ± 0.0029	0.757 ± 0.017	0.304 ± 0.018	0.352 ± 0.059	0.542 ± 0.009	0.447 ± 0.012
CFFGFRAGLFLG	0.507 ± 0.0082	0.7205 ± 0.0047	0.593 ± 0.018	0.754 ± 0.052	0.176 ± 0.002	0.155 ± 0.0076	0.247 ± 0.072	0.214 ± 0.016
VRLYLRSCVVES	0.347 ± 0.061	0.368 ± 0.0011	0.228 ± 0.029	0.437 ± 0.0094	0.181 ± 0.0071	0.217 ± 0.026	0.4148 ± 0.0031	0.32 ± 0.021
LVLFYLWSSVWA	0.4 ± 0.014	0.445 ± 0.0055	0.29 ± 0.032	0.4726 ± 0.0018	0.251 ± 0.01	0.279 ± 0.034	0.441 ± 0.0095	0.3819 ± 0.0021
KIKKLKNRRKLV	0.673 ± 0.0046	0.7717 ± 0.0033	0.625 ± 0.0071	0.7297 ± 0.003	0.0918 ± 0.019	0.0978 ± 0.0038	0.196 ± 0.032	0.166 ± 0.088
DPKQVRIQSSWL	0.699 ± 0.016	0.721 ± 0.046	0.644 ± 0.042	0.723 ± 0.013	0.6273 ± 0.0026	0.663 ± 0.018	0.6863 ± 0.0034	0.7428 ± 0.0039
PPSPAPLPDSLP	0.662 ± 0.036	0.6995 ± 0.0011	0.684 ± 0.038	0.715 ± 0.017	0.693 ± 0.015	0.691 ± 0.021	0.696 ± 0.0075	0.7006 ± 0.0066
VFSFLYHVVPVL	0.4374 ± 0.0012	0.49 ± 0.013	0.36 ± 0.028	0.505 ± 0.01	0.324 ± 0.018	0.348 ± 0.024	0.4554 ± 0.0018	0.441 ± 0.01
SGFLNVGYLWVC	0.5625 ± 0.00014	0.635 ± 0.0083	0.482 ± 0.025	0.644 ± 0.017	0.149 ± 0.012	0.175 ± 0.02	0.308 ± 0.02	0.239 ± 0.069
NTNITHHSVKLR	0.671 ± 0.017	0.7346 ± 0.0071	0.64 ± 0.026	0.712 ± 0.044	0.644 ± 0.024	0.662 ± 0.038	0.689 ± 0.036	0.727 ± 0.034
